# Data reported in paper doi:10.1101/2025.08.27.672506.
# Target: wild-type ectodomain of HA from A/Malaysia/1706215/2007 (H1N1) (influenza A virus A/Malaysia/1706215/2007 (H1N1))
# Assay: SEC
substance,measurement,value
wild-type ectodomain of HA from A/Malaysia/1706215/2007 (H1N1) (domain or fragment),stoichiometry N,3
